pKd: −log10 of the molar value.
Columns and labels:
[1] = biological target: PRPF40A N-ext-WW12 (N-terminally extended WW tandem, residues 56-236) (human) (UniProt O75400); assay: ITC; PRPF40A construct (WW12, N-ext-WW12 or its mutant) in the cell, GB1-SF1 or GB1-SF3A1 construct in the syringe (as shown in Supplementary Figures 16 and 21); 25 °C, 20 mM sodium phosphate pH 6.5, 100 mM NaCl; one-site binding model; at least duplicates; affinities apparent
[2] = biological target: PRPF40A N-ext-WW12 mutant (residues 56-236, PPVP/PALPP motifs changed to alanines) (human) (UniProt O75400); assay: as above
[3] = biological target: GB1-SF1 16-mer peptide 425-440; assay: ITC; GB1-peptide or GB1-SF1 construct in the cell, PRPF40A WW12 in the syringe (as shown in Supplementary Figures 7 and 16A); 25 °C, 20 mM sodium phosphate pH 6.5, 100 mM NaCl; one-site binding model; at least duplicates; affinities apparent
[4] = biological target: GB1-SF1 16-mer peptide 596-611; assay: as above
[5] = biological target: GB1-SF1 16-mer peptide 623-638; assay: as above
[6] = biological target: GB1-SF1 16-mer peptide 470-485; assay: as above
[7] = biological target: GB1-SF1 16-mer peptide 478-493; assay: as above
[8] = biological target: GB1-SF1 16-mer peptide 575-590 (SF1 PRPF40A WW binding site, GB1-tagged); assay: as above
[9] = biological target: GB1-SF1(596-611) 16-mer peptide; assay: ITC; MicroCal PEAQ-ITC, 25 °C, 20 mM sodium phosphate pH 6.5, 100 mM NaCl; PRPF40A constructs and GB1-tagged SF1 16-mer peptides; who was in the syringe is not stated for these panels (Fig. 2B, Fig. 5C); one-site model

pKd [1]	stoichiometry N [1] [sites]	pKd [2]	stoichiometry N [2] [sites]	pKd [3]	stoichiometry N [3] [sites]	pKd [4]	stoichiometry N [4] [sites]	pKd [5]	stoichiometry N [5] [sites]	pKd [6]	stoichiometry N [6] [sites]	pKd [7]	stoichiometry N [7] [sites]	pKd [8]	stoichiometry N [8] [sites]	pKd [9]	Substance
5.06	0.88	5.66	0.84	–	–	–	–	–	–	–	–	–	–	–	–	–	GB1-SF1 16-mer peptide 575-590 (SF1 PRPF40A WW binding site, GB1-tagged)
–	–	–	–	4.69	0.87	4.18	1.1	4.63	0.95	4.86	0.9	5.02	0.8	5.85	1	4.18	PRPF40A WW12 (tandem WW domains, residues 141-236) (from UniProt O75400 141-236) (domain or fragment)
